Data on 4 molecules can be found in publication PMC9911985 (Journal of Molecular Biology, 2023).

Where no end group is shown, it is not given here. MBP = not defined here

The test has as its target nsp7 with a C-terminal strep-tag II (nsp7-strep), SARS-CoV-2 nonstructural protein 7 (SARS-CoV-2, UniProt P0DTD1 3860-3942). Description: pull-down.
As to {6xHis-MBP}-SCILLYVVFQKLSARLRALR (domain or fragment, reading uncertain) [6xHis-MBP-selenos 40–59], the binding result was “binds”. As to {6xHis-MBP}-GWYIVFSCILLYVVFQKLSARLRALR (domain or fragment, reading uncertain) [6xHis-MBP-selenos 34–59], the binding result is “binds”.

Regarding {6xHis-MBP}-SCILLYVVFQKLSARLRALRQRQLDR (domain or fragment, reading uncertain) [6xHis-MBP-selenos 40–65], the binding result is reported as “binds”. As to {6xHis-MBP}-GWYIVFSCILLYVVFQKLSARLRALRQRQLDR (domain or fragment, reading uncertain) [6xHis-MBP-selenos 34–65], the binding result was “binds”.
